Data on three molecules can be found in PMC3770644 (PLoS ONE, 2013).

In experiment [1] the target is T1, ubiquitin (whether His-tagged or not is not told for the experiment) (UniProt P0CG48 1-76).
T1 construct: ubiquitin, the 76-residue cut product (residues up to Gly76 are named); The methods list His-tagged and non His-tagged ubiquitin; It may carry the C-terminal His tag of m6; 15N- or 13C,15N-labelled in some NMR experiments; source: purchased from Spectra Isotopes or obtained as described in [12]; [18]
The experiment is described as follows: other fluorescence titration + ITC; 25 °C; ubiquitin stock titrated into the SH3 domain; ITC in 20 mM cacodylate, pH 6.0, about 50 µM SH3 in the cell and about 800 µM ubiquitin; intrinsic tryptophan fluorescence (excitation 298 nm), apparent affinities; model of a single set of identical sites. To be noted: both partners purified.

The target of experiment [2] is T1, ubiquitin (whether His-tagged or not is …). The experiment is described as follows: NMR titration; unlabelled SH3 domain titrated into 0.25 mM 15N-ubiquitin; 1H-15N HSQC chemical shift perturbation; 25 °C; 50 mM NaPi, 1 mM DTT, pH 6.0. To be noted: both partners purified.

Numbering of substitutions follows the chain as printed. Names and notes keep the numbering of the source.

B1: CD2AP F324Y SH3-C (domain or fragment)
chain: AKEYCRTLFPYTGTNEDELTFREGEIIHLISKETGEAGWWKGELNGKEGVFPDNYAVQIS
notes: CD2AP third SH3 domain (SH3-C) with F324Y; Site-directed mutagenesis (QuikChange) of the WT construct m3; also called SH3-C F324Y mutant; F324Y CD2AP SH3-C; source: E. coli BL21/DE3, purified like the WT CD2AP SH3-C
With B1, in experiment [1], the Kd worked out at 24 ± 3 µM.

B2: CD2AP SH3-C T283A mutant (domain or fragment)
chain: B1 chain with T14A, Y55F
notes: CD2AP third SH3 domain (SH3-C) with T283A (RT loop); Mutant of m3; source: purchased from Topgene and expressed as the WT domains; purified
In the case of B2, the binding result in experiment [2] is listed as “binds”.

B3: CIN85 F322Y SH3-C (domain or fragment, UniProt Q96B97 270-328, looked up)
chain: DYCKVIFPYEAQNDDELTIKEGDIVTLINKDCIDVGWWEGELNGRRGVFPDNYVKLLPP
notes: CIN85 third SH3 domain (SH3-C) with F322Y; limits as the WT construct CIN85-SH3C(270-328)His6; Site-directed mutagenesis (QuikChange) of the WT construct m4; also called CIN85 SH3-C F322Y mutant; CIN85 F322Y SH3-C mutant; source: E. coli BL21/DE3, purified like the WT CIN85 SH3-C
Turning to B3, the binding result in experiment [2] is recorded as “binds”.
